{
  "source": "patent US20230304023A1",
  "about": "“BILE SALTS B[…] USE THEREOF FOR DIAGNOSTIC AND T[…]” (INSERM (INSTITUT NATIONAL DE LA SANTÉ ET DE LA RECHERCHE …, priority 2020, published 2023)",
  "molecules": {"B1": {"name": "TcpPwt: Wild-type V. cholerae TcpP bile salt sensing domain, loop NYEQ (SEQ ID NO:4/24), fused to E. coli CadC DNA binding domain (SEQ ID NO:48) (protein)", "chain": "MQQPVVRVGEWLVTPSINQISRNGRQLTLEPRLIDLLVFFAQHSGEVLSRDELIDNVWKRSIVTNHVVTQSISELRKSLKDNDEDSPVYIATVPKRGYKLMVPVIWYSEEEGEEIMLSSPPPIPEAVPATDSPSHSLNIQNTATPPEQSPVKSKRVVPYLVFSALYVALLPVIWWSYGQWYQHELAGITHDLRDLARLPGITIQKLSEQKLTFAIDQHQCSVNYEQKTLECTKN", "modifications": "Synthetic bile salts chimeric receptor"}, "B2": {"name": "SV_3-3-18: TcpP bile salt sensing domain variant, loop VFSD (SEQ ID NO:10/30), CadC fusion SEQ ID NO:54; best engineered variant (protein)", "chain": "B1 chain with N223V, Y224F, E225S, Q226D", "modifications": "Synthetic bile salts chimeric receptor"}, "B3": {"name": "SV_3-3-16: TcpP bile salt sensing domain variant, loop DFLT (SEQ ID NO:9/29), CadC fusion SEQ ID NO:53 (protein)", "chain": "B1 chain with N223D, Y224F, E225L, Q226T", "modifications": "Synthetic bile salts chimeric receptor"}},
  "key": {"bile salts [1]": {"tested_on": "bile salts", "assay": "Specificity testing of the CadC-TcpP bactosensor across a panel of twelve bile salts"}, "bile salts [2]": {"tested_on": "bile salts", "format": "cell-based, E. coli", "settings": "kinetic analysis, data not shown"}, "Taurocholic acid": {"tested_on": "Taurocholic acid", "format": "cell-based, E. coli"}},
  "note": "Positions count from the first letter of the chain named.",
  "data": [
    {"molecule": "B1", "values": [
      {"measurement": "response to secondary bile salts", "setting": "bile salts [1]", "result": "did not respond"},
      {"measurement": "specificity across bile salts", "setting": "bile salts [1]; primary and secondary types", "result": "highly specific for primary conjugated bile salts"}
    ]},
    {"molecule": "B2", "values": [
      {"measurement": "response speed at low ligand concentration compared to wt TcpP", "setting": "bile salts [2]", "result": "faster response at low ligand concentration"}
    ]},
    {"molecule": "B3", "values": [
      {"measurement": "EC50", "setting": "Taurocholic acid; taurocholic acid (TCA) as ligand, GFP output", "result": 42.1, "unit": "µM"},
      {"measurement": "Max fold change", "setting": "Taurocholic acid; taurocholic acid titration", "result": 75.73}
    ]}
  ]
}
